Where two headings read alike, the source gives them in different places.
Experiments:
Assay in all cases: AUC; sedimentation velocity, interference optics; 40 uM protein in 25 mM TES, 100 mM NaCl, 100 uM EDTA, pH 7.4; apo samples and samples with 250 uM Cu2+ and Ca2+; no reducing agent; c(s) distribution by SedFit; self-association (monomer, dimer, higher oligomers)
[1] = target: human S100A5 C43S/C79S, Cysteine-free variant (human) (UniProt P33763)
[2] = target: human S100A5, wildtype (human) (UniProt P33763)
[3] = target: human S100A5, wildtype (human) (UniProt P33763); remark: listed apart in the source

stoichiometry N [1] | stoichiometry N [2] | stoichiometry N [3] | Substance
2 | – | – | human S100A5 C43S/C79S, Cysteine-free variant (from UniProt P33763 1-92) (natural protein)
– | > 12 | 2 | human S100A5, wildtype (from UniProt P33763 1-92) (natural protein)
